Data: publication PMC5405413, “The plant cell-wall enzyme AtXTH3 catalyses covalent cross-linking between cellulose and cello-oligosaccharide” (Scientific Reports, 2017)

Assays:
AtXTH22 = molecular target: T1, AtXTH22 (Arabidopsis thaliana, UniProt Q38857); assay: transglycosylation, size-exclusion chromatography with fluorescence detection; format: biochemical; settings: 25 μM acceptor; donor tamarind xyloglucan 2 mg/mL; 50 mM sodium acetate pH 6.0, 30 °C, 24 h; labelled compound
T1 construct: gene XTH22
T1 sequence (Q38857 22-284): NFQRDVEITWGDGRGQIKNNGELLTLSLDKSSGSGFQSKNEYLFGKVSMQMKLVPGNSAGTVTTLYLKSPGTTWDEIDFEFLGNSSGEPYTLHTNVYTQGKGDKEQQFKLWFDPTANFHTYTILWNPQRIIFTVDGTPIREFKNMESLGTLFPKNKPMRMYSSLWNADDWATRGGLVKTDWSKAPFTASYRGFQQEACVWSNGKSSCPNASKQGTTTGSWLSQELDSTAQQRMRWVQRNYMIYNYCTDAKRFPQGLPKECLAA

[1] = substrate: OC[C@@H](O)[C@@H](O[C@@H]1O[C@H](CO[C@H]2OC[C@@H](O)[C@H](O)[C@H]2O)[C@@H](O[C@@H]2O[C@H](CO[C@H]3OC[C@@H](O)[C@H](O)[C@H]3O)[C@@H](O[C@@H]3O[C@H](CO[C@H]4OC[C@@H](O)[C@H](O)[C@H]4O)[C@@H](O)[C@H](O)[C@H]3O)[C@H](O)[C@H]2O)[C@H](O)[C@H]1O)[C@H](O)[C@@H](O)CNc1ccccn1; assay: transglycosylation, fluorescent product by anion-exchange LC after cellulase digestion; format: biochemical, Arabidopsis thaliana; settings: acceptor, donor amorphous cellulose, 50 mM sodium acetate pH 5.0, 30 °C, 6 h, labelled compound
Source text: (§1) transglycosylation, fluorescent product by anion-exchange LC after cellulase digestion on AtXTH3 | Michaelis constant (KM) and turnover number (kcat) for acceptor oligosaccharides (left: GGGG-AP; right: XXXG-AP)

[2] = substrate: OC[C@@H](O)[C@@H](O[C@@H]1O[C@H](CO)[C@@H](O[C@@H]2O[C@H](CO)[C@@H](O[C@@H]3O[C@H](CO)[C@@H](O)[C@H](O)[C@H]3O)[C@H](O)[C@H]2O)[C@H](O)[C@H]1O)[C@H](O)[C@@H](O)CNc1ccccn1; assay: as above; format: biochemical, Arabidopsis thaliana; settings: acceptor, donor amorphous cellulose, 50 mM sodium acetate pH 5.0, 30 °C, 6 h, labelled compound
Source text: as §1

| Molecule | transglycosylation, size-exclusion chromatography with fluorescence detection (AtXTH22) | Km [1] [µM] | kcat [1] | Km [2] [µM] | kcat [2] |
| --- | --- | --- | --- | --- | --- |
| OC[C@@H](O)[C@@H](O[C@@H]1O[C@H](CO[C@H]2OC[C@@H](O)[C@H](O)[C@H]2O)[C@@H](O[C@@H]2O[C@H](CO[C@H]3OC[C@@H](O)[C@H](O)[C@H]3O)[C@@H](O[C@@H]3O[C@H](CO[C@H]4OC[C@@H](O)[C@H](O)[C@H]4O)[C@@H](O)[C@H](O)[C@H]3O)[C@H](O)[C@H]2O)[C@H](O)[C@H]1O)[C@H](O)[C@@H](O)CNc1ccccn1 [XXXG-AP, aminopyridyl xyloglucan-heptasaccharide] | AtXTH22 almost exclusively transferred xyloglucans to xyloglucan oligosaccharides | – | – | – | – |
| AtXTH3 (Arabidopsis thaliana) (protein) RVFGGRGIEKFVTFGQNYIVTWGQSHVSTLHSGEEVDLYMDQSSGGGFESKDAYGSGLFEMRIKVPSGNTGGIVTAFYLTSKGGGHDEIDFEFLGNNNGKPVTLQTNLFLNGEGNREERFLLWFNPTKHYHTYGLLWNPYQIVFYVDNIPIRVYKNENGVSYPSKPMQVEASLWNGDDWATDGGRTKVNWSYSPFIAHFRDFALSGCNIDGRSNNVGACESSNYWWNAGNYQRLSGNEQKLYEHVRSKYMNYDYCTDRSKYQTPPRECY | – | 8.6 ± 2.3 | 9.0 ± 1.0 x10^-5 sec^-1 | 58.8 ± 8.4 | 8.0 ± 0.5 x10^-5 sec^-1 |
